In paper PMC9896810, “Crk proteins activate the Rap1 guanine nucleotide exchange factor C3G by segregated adaptor-dependent and -independent mechanisms” (Cell Communication and Signaling : CCS, 2023):
Values belong to the binder of their own block, whether it stands above or below them.

What was measured:
[1] = target: T1, C3G-APAA (human, UniProt Q13905-1 4-1077, P283A | P284A | L286 | P287 | P289A | P540A | P541A | L543A | P544A | K546A | …); experiment: ITC; single-PRM mutant of C3G in the cell titrated with CrkL or CrkL-SH3N, 25 °C, 300 mM NaCl, pH 7.5; SEDPHAT, 1:1 heteroassociation model; N is the competent fraction of C3G; settings: both partners purified
T1 construct: human C3G isoform a, residues 4-1077; only P2 kept, P1, P3 and P4 mutated to Ala; source: E. coli BL21 (DE3), purified (IMAC, TEV digestion, reversed IMAC, SEC); not shown: His, N-terminal, cleaved; Halo, N-terminal, cleaved
T1 sequence (looked up): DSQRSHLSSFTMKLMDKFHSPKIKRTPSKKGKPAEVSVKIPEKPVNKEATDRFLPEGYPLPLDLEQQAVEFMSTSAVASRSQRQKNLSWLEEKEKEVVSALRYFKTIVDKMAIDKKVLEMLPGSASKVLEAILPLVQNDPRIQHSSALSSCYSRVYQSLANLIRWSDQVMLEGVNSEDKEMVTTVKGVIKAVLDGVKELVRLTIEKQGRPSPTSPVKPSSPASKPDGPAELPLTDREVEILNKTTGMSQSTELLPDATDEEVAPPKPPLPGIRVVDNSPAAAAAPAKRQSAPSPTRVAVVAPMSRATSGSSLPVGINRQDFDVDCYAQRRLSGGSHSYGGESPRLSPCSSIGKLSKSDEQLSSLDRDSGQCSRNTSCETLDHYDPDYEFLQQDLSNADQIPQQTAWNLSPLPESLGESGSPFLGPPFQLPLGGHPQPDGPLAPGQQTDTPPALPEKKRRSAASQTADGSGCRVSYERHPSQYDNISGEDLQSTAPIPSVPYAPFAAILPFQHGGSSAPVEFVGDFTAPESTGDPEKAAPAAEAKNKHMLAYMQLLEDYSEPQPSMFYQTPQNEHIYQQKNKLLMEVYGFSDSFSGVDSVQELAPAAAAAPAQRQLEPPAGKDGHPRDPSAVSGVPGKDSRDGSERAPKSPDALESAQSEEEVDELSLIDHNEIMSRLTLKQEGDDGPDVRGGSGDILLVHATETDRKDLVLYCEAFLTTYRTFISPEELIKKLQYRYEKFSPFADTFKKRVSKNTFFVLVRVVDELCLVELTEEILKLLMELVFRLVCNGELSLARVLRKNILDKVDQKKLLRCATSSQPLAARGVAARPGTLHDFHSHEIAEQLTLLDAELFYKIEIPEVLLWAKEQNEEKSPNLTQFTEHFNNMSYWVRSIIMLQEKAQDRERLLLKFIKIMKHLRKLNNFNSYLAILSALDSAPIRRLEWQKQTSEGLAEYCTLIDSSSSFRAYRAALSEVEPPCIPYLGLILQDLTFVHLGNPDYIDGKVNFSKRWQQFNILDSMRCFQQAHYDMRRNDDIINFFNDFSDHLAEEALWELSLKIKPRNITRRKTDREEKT

[2] = target: T2, C3G-AAPA-Y554H (human, UniProt Q13905-1 4-1077, P283A | P284A | L286 | P287 | P289A | P453A | P454A | L456A | P457A | K459A | …); experiment: as above; settings: both partners purified
T2 construct: human C3G isoform a, residues 4-1077; source: E. coli BL21 (DE3), purified (IMAC, TEV digestion, reversed IMAC, SEC); not shown: His, N-terminal, cleaved; Halo, N-terminal, cleaved
T2 sequence (looked up): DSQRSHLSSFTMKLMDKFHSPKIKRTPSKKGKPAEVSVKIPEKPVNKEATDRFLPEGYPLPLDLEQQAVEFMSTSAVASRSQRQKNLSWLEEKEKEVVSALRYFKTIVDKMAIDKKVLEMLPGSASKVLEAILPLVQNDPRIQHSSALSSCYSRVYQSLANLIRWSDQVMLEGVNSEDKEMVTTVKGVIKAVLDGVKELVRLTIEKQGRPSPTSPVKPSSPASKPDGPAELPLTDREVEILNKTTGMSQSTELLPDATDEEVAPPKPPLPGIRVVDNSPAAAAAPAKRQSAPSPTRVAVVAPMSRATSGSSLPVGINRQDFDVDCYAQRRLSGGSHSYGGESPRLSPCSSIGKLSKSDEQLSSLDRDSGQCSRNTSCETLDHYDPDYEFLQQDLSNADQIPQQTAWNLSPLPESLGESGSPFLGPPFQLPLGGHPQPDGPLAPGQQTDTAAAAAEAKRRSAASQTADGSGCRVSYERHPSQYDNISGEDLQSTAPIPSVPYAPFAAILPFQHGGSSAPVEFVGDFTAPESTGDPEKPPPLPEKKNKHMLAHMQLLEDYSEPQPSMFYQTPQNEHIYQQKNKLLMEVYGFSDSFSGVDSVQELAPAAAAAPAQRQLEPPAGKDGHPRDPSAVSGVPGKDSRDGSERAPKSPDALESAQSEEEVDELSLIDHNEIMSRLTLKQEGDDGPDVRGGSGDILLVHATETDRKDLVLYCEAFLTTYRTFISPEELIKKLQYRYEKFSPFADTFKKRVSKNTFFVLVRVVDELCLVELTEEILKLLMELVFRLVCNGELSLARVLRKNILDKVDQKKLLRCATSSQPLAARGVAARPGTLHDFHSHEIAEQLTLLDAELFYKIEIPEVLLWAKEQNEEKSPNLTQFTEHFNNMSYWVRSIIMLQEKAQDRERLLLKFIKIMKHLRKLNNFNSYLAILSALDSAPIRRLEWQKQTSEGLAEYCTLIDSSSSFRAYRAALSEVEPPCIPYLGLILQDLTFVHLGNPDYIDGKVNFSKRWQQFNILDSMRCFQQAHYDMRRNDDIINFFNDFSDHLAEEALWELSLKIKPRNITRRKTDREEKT

Kd [1]: 1200 nM
stoichiometry N [1]: 0.78
B1: CrkL (full-length) (natural protein, human, UniProt P46109 1-303, looked up)
chain: MSSARFDSSDRSAWYMGPVSRQEAQTRLQGQRHGMFLVRDSSTCPGDYVLSVSENSRVSHYIINSLPNRRFKIGDQEFDHLPALLEFYKIHYLDTTTLIEPAPRYPSPPMGSVSAPNLPTAEDNLEYVRTLYDFPGNDAEDLPFKKGEILVIIEKPEEQWWSARNKDGRVGMIPVPYVEKLVRSSPHGKHGNRNSNSYGIPEPAHAYAQPQTTTPLPAVSGSPGAAITPLPSTQNGPVFAKAIQKRVPCAYDKTALALEVGDIVKVTRMNINGQWEGEVNGRKGLFPFTHVKIFDPQNPDENE
notes: human CrkL, residues 1-303, in pETEV15b; also called Crk-like protein; source: E. coli BL21 (DE3), purified (IMAC, TEV digestion, SEC); not shown: His, N-terminal, cleaved

stoichiometry N [2]: 0.47
B2: CrkL-SH3N (domain or fragment, human, UniProt P46109 125-182, looked up)
chain: LEYVRTLYDFPGNDAEDLPFKKGEILVIIEKPEEQWWSARNKDGRVGMIPVPYVEKLV
notes: human CrkL, SH3N domain, residues 125-182, in pETEV15b; source: E. coli BL21 (DE3), purified (IMAC, TEV digestion, SEC); not shown: His, N-terminal, cleaved
